Data reported in PMC5742583, “A Functional Analysis on the Interspecies Interaction between Mouse LFA-1 and Human Intercellular Adhesion Molecule-1 at the Cell Level” (Frontiers in Immunology, 2017).

Legend:
[1] = system: mouse macrophages; experiment: Mouse macrophage adhesion to human ICAM-1 (D1D5Fc)-coated plates; type: cell-based; conditions: plates coated with 5 µg human D1D5Fc; compared with mouse D1D5Fc; MTT
Procedure: (§1) Mouse macrophages were differentiated from mouse bone marrow as previously described ([37]). Briefly, bone marrow cells isolated from mouse femur were cultured in DMEM 10% FBS, 5% horse serum, and 30% supernatant of L929 cell culture as a source of M-CSF at a density of 10^6/cm^2 for 7–8 days. Macrophage differentiation was analyzed in the same way as human macrophages but using CD11b-APC and CD11c-PE (BD) antibodies.
(§2) Freshly isolated monocytes or differentiated macrophages were washed twice with PBS and incubated with trypsin (PAN Biotech) for 30 min at 37°C 5% CO2. After that, cells were scraped gently from the plate and resuspended at a final concentration of 10^6 cells/ml in complete RPMI medium. Subsequently, 10^5 macrophages and 5 × 10^5 monocytes were added to each well and incubated with several concentrations of human D1D2, D1D2Fc, D1D5Fc, mouse D1D5Fc, control human IgG1 20 µg or lovastatin 100 µM at 37°C 5% CO2 overnight. Next day, every well was washed twice with PBS, complete RPMI medium was added and the number or adherent remaining cells was quantified by a MTT colorimetric test ([38]). In some experiments, plates previously coated with human and mouse D1D5Fc were used. […]
(§3) Figure 7 Human intercellular adhesion molecule (ICAM)-1 blocks LFA-1-mediated mouse macrophage cell adhesion. […] (B) Macrophage phenotype was analyzed by flow cytometry testing the expression CD11b and CD11c. […]

[2] = system: LFA-1 in the mouse T cell line EL4; experiment: Binding of ICAM-1 chimeras to LFA-1 on EL4 cells by flow cytometry; type: cell-based; conditions: mouse or human D1D5Fc 0.1 and 5 µg, 4°C 45 min; representative experiment
Procedure: The ability of human D1D2Fc and mouse and human D1D5Fc to recognize LFA-1 on mouse cells was analyzed by flow cytometry in the mouse thymic lymphoma cell line EL4. EL4 cells were incubated with different concentrations of human D1D2Fc, mouse and human D1D5Fc and human IgG1 control at 4°C for 45 min, washed twice with FACS buffer (PBS, 5% FCS, 0.1% NaN3), and then incubated with PE-conjugated goat anti-human IgG (Fcγ fragment specific; Jackson ImmunoResearch). After a washing step with FACS buffer, cells were analyzed by FACS using a FACS Calibur with CellQuest Pro software (BD). As control cells were incubated with an antibody against mouse CD11a (LFA-1) before adding human D1D2Fc.
Figure 2 Analysis of D1D2Fc binding to LFA-1 in EL4 cells by flow cytometry. (A) Different amounts of D1D2Fc (0.1, 1, and 10 µg) or human IgG1 control (10 µg) were incubated with EL4 cells. After washing out non-bound proteins, cells were incubated with PE-conjugated goat anti-human IgG Fcγ Ab and analyzed by flow cytometry. As a control EL4 cells were pretreated with a mouse LFA-1 blocking antibody (anti LFA-1) before incubating with 10 µg of D1D2Fc. Histograms show a representative experiment. […] After washing out non-bound proteins, cells were incubated with PE-conjugated goat anti-human IgG Fcγ Ab and analyzed by flow cytometry. […]

[3] = system: gp33-pulsed EL4 cells killed by mouse Tc cells (ICAM-1/LFA-1); experiment: CD8+ T cell-mediated cytotoxicity on EL4; type: cell-based; conditions: ICAM-1 proteins, several (increasing) amounts, preincubation 45 min 37°C, effector:target 10:1, 4 h, annexin-V/7-AAD by FACS, three experiments by duplicate
[4] = system: mouse macrophages; experiment: Mouse macrophage adhesion to mouse ICAM-1 (D1D5Fc)-coated plates; type: cell-based; conditions: plates coated with 5 µg mouse D1D5Fc; compared with human D1D5Fc; MTT
Procedure: as §1, §2, §3

[5] = system: human LFA-1; conditions: purified cell-free models; ref [29]; cited from earlier work
Source text: Humanized mice are widely used as in vivo models to study the molecular basis of immune-related disorders as well as the efficacy of potential drugs ([23]). In these mice, the native gene of interest is replaced by its human homolog or the immune system is eliminated and reconstituted with its human counterpart. In addition, these mice can be used to enhance the engraftment of human cancer cells allowing in vivo studies of cancer progression and treatment. Here, a major obstacle to analyze human cell function, either healthy or transformed, and disease is the lack of species cross-reactivity o ...

Row | Molecule | adhesion of mouse macrophages to coated plate [1] | binding to EL4 cells [2] | inhibition of Tc cell-mediated cell death of EL4 [3] | inhibition of Tc cell-mediated cell death of EL4 ([3]; listed as mouse ICAM-1 (D1D5Fc)) | adhesion of mouse macrophages to coated plate [4] | binding to human LFA-1 [5]
1 | human D1D5Fc: human Fc chimera containing the five extracellular domains of ICAM-1, R&D systems (protein, left off: Fc, end not stated, kept, human Fc chimera containing the five extracellular domains of ICAM-1, R&D systems) QTSVSPSKVILPRGGSVLVTCSTSCDQPKLLGIETPLPKKELLLPGNNRKVYELSNVQEDSQPMCYSNCPDGQSTAKTFLTVYWTPERVELAPLPSWQPVGKNLTLRCQVEGGAPRANLTVVLLRGEKELKREPAVGEPAEVTTTVLVRRDHHGANFSCRTELDLRPQGLELFENTSAPYQLQTFVLPATPPQLVSPRVLEVDTQGTVVCSLDGLFPVSEAQVHLALGDQRLNPTVTYGNDSFSAKASVSVTAEDEGTQRLTCAVILGNQSQETLQTVTIYSFPAPNVILTKPEVSEGTEVTVKCEAHPRAKVTLNGVPAQPLGPRAQLLLKATPEDNGRSFSCSATLEVAGQLIHKNQTRELRVLYGPRLDERDCPGNWTWPENSQQTPMCQAWGNPLPELKCLKDGTFPLPIGESVTVTRDLEGTYLCRARSTQGEVTRKVTVNVLSPRYE | similarly adhered | binding of human ICAM-1 was higher than binding of mouse ICAM-1 | – | – | – | –
2 | mouse D1D5Fc: mouse Fc chimera containing the five extracellular domains of ICAM-1, R&D systems (protein, left off: Fc, end not stated, kept, mouse Fc chimera containing the five extracellular domains of ICAM-1, R&D systems) QVSIHPREAFLPQGGSVQVNCSSSCKEDLSLGLETQWLKDELESGPNWKLFELSEIGEDSSPLCFENCGTVQSSASATITVYSFPESVELRPLPAWQQVGKDLTLRCHVDGGAPRTQLSAVLLRGEEILSRQPVGGHPKDPKEITFTVLASRGDHGANFSCRTELDLRPQGLALFSNVSEARSLRTFDLPATIPKLDTPDLLEVGTQQKLFCSLEGLFPASEARIYLELGGQMPTQESTNSSDSVSATALVEVTEEFDRTLPLRCVLELADQILETQRTLTVYNFSAPVLTLSQLEVSEGSQVTVKCEAHSGSKVVLLSGVEPRPPTPQVQFTLNASSEDHKRSFFCSAALEVAGKFLFKNQTLELHVLYGPRLDETDCLGNWTWQEGSQQTLKCQAWGNPSPKMTCRRKADGALLPIGVVKSVKQEMNGTYVCHAFSSHGNVTRNVYLTVLYHSQNN | – | bound to EL4 cells | similarly prevented cell death | inhibited cell death | similarly adhered | –
3 | mouse ICAM-1: mouse ICAM-1, purified cell-free models of ref [29] (protein, UniProt P13597 28-537, looked up) Intercellular adhesion …: QVSIHPREAFLPQGGSVQVNCSSSCKEDLSLGLETQWLKDELESGPNWKLFELSEIGEDSSPLCFENCGTVQSSASATITVYSFPESVELRPLPAWQQVGKDLTLRCHVDGGAPRTQLSAVLLRGEEILSRQPVGGHPKDPKEITFTVLASRGDHGANFSCRTELDLRPQGLALFSNVSEARSLRTFDLPATIPKLDTPDLLEVGTQQKLFCSLEGLFPASEARIYLELGGQMPTQESTNSSDSVSATALVEVTEEFDRTLPLRCVLELADQILETQRTLTVYNFSAPVLTLSQLEVSEGSQVTVKCEAHSGSKVVLLSGVEPRPPTPQVQFTLNASSEDHKRSFFCSAALEVAGKFLFKNQTLELHVLYGPRLDETDCLGNWTWQEGSQQTLKCQAWGNPSPKMTCRRKADGALLPIGVVKSVKQEMNGTYVCHAFSSHGNVTRNVYLTVLYHSQNNWTIIILVPVLLVIVGLVMAASYVYNRQRKIRIYKLQKAQEEAIKLKGQAPPP | – | – | – | – | – | binds human LFA-1
